Measurements as given in patent US20210388110A1.

Biological target: extracellular matrix (BD Matrigel)
Test: ECL on Matrigel-coated plate, relative to MRAH-G1d/MRAL-k0

Binder	ECM binding ratio (standard = 1)
TR01H040-E2702GsKsc/H0610-E2704sEpsc/L0204-k0 (bispecific antibody, human IgG4 S228P, kappa, N297A) heavy 1: QVQLVESGGGLVQPGRSLRLSCAASGFTFSNAWMHWVRQAPGKGLEWVAQIKDKSQNYATYYAESVKGRFTISRADSKNSIYLQMNSLKTEDTAVYYCRYVHYSASYGVDAWGQGTTVTVSSASTKGPSVFPLAPCSRSTSESTAALGCLVKDYFPEPVTVSWNSGALTSGVHTFPAVLQSSGLYSLSSVVTVPSSSLGTKTYTCNVDHKPSNTKVDKRVESKYGPPCPPCPAPEFRGGPKVFLFPPKPKDTLMISRTPEVTCVVVDVSQEDPEVQFNWYVDGVEVHNAKTKPREEQFASTYRVVSVLTVLHQDWLNGKEYKCKVSNKGLPSSIEKTISKAKGQPREPQVYTLPPSQKEMTKNQVSLTCLVKGFYPSDIAVEWESNGQPENNYKTTPPVLDSDGSFFLYSKLTVDKSRWQEGNVFSCSVMHEALHNRYTQKSLSLSP heavy 2: QVQLVQSGAEVKKPGASVKVSCKASGYTFTDYEMHWIRQPPGQGLEWIGAIDGKTPDTAYSQKFKGRVTLTADKSTSTAYMELSSLTSEDTAVYYCTRFYSYTYWGQGTLVTVSSASTKGPSVFPLAPCSRSTSESTAALGCLVKDYFPEPVTVSWNSGALTSGVHTFPAVLQSSGLYSLSSVVTVPSSSLGTQTYTCNVDHKPSNTKVDKRVESKYGPPCPPCPAPEFRGGPKVFLFPPKPKDTLMISRTPEVTCVVVDVSQEDPEVQFNWYVDGVEVHNAKTKPREEQFASTYRVVSVLTVLHQDWLNGKEYKCKVSNKGLPSSIEKTISKAKGQPREPQVYTLPPSQEEMTKNQVSLTCLVKGFYPSDIAVEWESNGQPENNYKTTPPVLDSDGSFFLYSKLTVDKSRWQEGNVFSCSVMHEALHNHYTQESLSLSP light: DIVMTQSPLSLPVTPGEPASISCRSSQSPVHSNRNTYLHWYQQKPGQAPRLLIYKVSNRFRGVPDRFSGSGSGTDFTLKISRVEAEDVGVYYCGQGTQVPYTFGQGTKLEIKRTVAAPSVFIFPPSDEQLKSGTASVVCLLNNFYPREAKVQWKVDNALQSGNSQESVTEQDSKDSTYSLSSTLTLSKADYEKHKVYACEVTHQGLSSPVTKSFNRGEC	4.4
TR01H082-E2702GsKsc/GCH065-E2704sEpsc/L0011-k0 (bispecific antibody, human IgG4 S228P, kappa, N297A) heavy 1: QVQLVESGGGLVQPGRSLRLSCAASGFTFSNAWMHWVRQAPGKGLEWVAQIKDKSQNYATYYAESVKGRFTISRDDSKNSLYLQMNSLKTEDTAVYYCRYVHYAAGYGVDAWGQGTTVTVSSASTKGPSVFPLAPCSRSTSESTAALGCLVKDYFPEPVTVSWNSGALTSGVHTFPAVLQSSGLYSLSSVVTVPSSSLGTKTYTCNVDHKPSNTKVDKRVESKYGPPCPPCPAPEFRGGPKVFLFPPKPKDTLMISRTPEVTCVVVDVSQEDPEVQFNWYVDGVEVHNAKTKPREEQFASTYRVVSVLTVLHQDWLNGKEYKCKVSNKGLPSSIEKTISKAKGQPREPQVYTLPPSQKEMTKNQVSLTCLVKGFYPSDIAVEWESNGQPENNYKTTPPVLDSDGSFFLYSKLTVDKSRWQEGNVFSCSVMHEALHNRYTQKSLSLSP heavy 2: QVQLVQSGAEVKKPGASVTVSCKASGYTFTDYEMHWIRQPPGEGLEWIGAIDGPTPDTAYSEKFKGRVTLTADKSTSTAYMELSSLTSEDTAVYYCTRFYSYTYWGQGTLVTVSSASTKGPSVFPLAPCSRSTSESTAALGCLVKDYFPEPVTVSWNSGALTSGVHTFPAVLQSSGLYSLSSVVTVPSSSLGTQTYTCNVDHKPSNTKVDKRVESKYGPPCPPCPAPEFRGGPKVFLFPPKPKDTLMISRTPEVTCVVVDVSQEDPEVQFNWYVDGVEVHNAKTKPREEQFASTYRVVSVLTVLHQDWLNGKEYKCKVSNKGLPSSIEKTISKAKGQPREPQVYTLPPSQEEMTKNQVSLTCLVKGFYPSDIAVEWESNGQPENNYKTTPPVLDSDGSFFLYSKLTVDKSRWQEGNVFSCSVMHEALHNHYTQESLSLSP light: DIVMTQSPLSLPVTPGEPASISCRSSQPLVHSNRNTYLHWYQQKPGQAPRLLIYKVSNRFSGVPDRFSGSGSGTDFTLKISRVEAEDVGVYYCGQGTQVPYTFGQGTKLEIKRTVAAPSVFIFPPSDEQLKSGTASVVCLLNNFYPREAKVQWKVDNALQSGNSQESVTEQDSKDSTYSLSSTLTLSKADYEKHKVYACEVTHQGLSSPVTKSFNRGEC	1.7
TR01H067-E2702GsKsc/GCH054-E2704sEpsc/L0212-k0 (bispecific antibody, human IgG4 S228P, kappa, N297A) heavy 1: QVQLVESGGGLVQPGRSLRLSCAASGFTFSNAWMHWVRQAPGKGLEWVAQIKDKSQNYATYYAESVKGRFTISRDDSKNSLYLQMNSLKTEDTAVYYCRYVHYAASYGVDAWGQGTTVTVSSASTKGPSVFPLAPCSRSTSESTAALGCLVKDYFPEPVTVSWNSGALTSGVHTFPAVLQSSGLYSLSSVVTVPSSSLGTKTYTCNVDHKPSNTKVDKRVESKYGPPCPPCPAPEFRGGPKVFLFPPKPKDTLMISRTPEVTCVVVDVSQEDPEVQFNWYVDGVEVHNAKTKPREEQFASTYRVVSVLTVLHQDWLNGKEYKCKVSNKGLPSSIEKTISKAKGQPREPQVYTLPPSQKEMTKNQVSLTCLVKGFYPSDIAVEWESNGQPENNYKTTPPVLDSDGSFFLYSKLTVDKSRWQEGNVFSCSVMHEALHNRYTQKSLSLSP heavy 2: QVQLVQSGAEVKKPGASVTVSCKASGYTFTDYEMHWIRQPPGEGLEWIGAIDGETPDTAYSEKFKGRVTLTADKSTSTAYMELSSLTSEDTAVYYCTRFYSYTYWGQGTLVTVSSASTKGPSVFPLAPCSRSTSESTAALGCLVKDYFPEPVTVSWNSGALTSGVHTFPAVLQSSGLYSLSSVVTVPSSSLGTQTYTCNVDHKPSNTKVDKRVESKYGPPCPPCPAPEFRGGPKVFLFPPKPKDTLMISRTPEVTCVVVDVSQEDPEVQFNWYVDGVEVHNAKTKPREEQFASTYRVVSVLTVLHQDWLNGKEYKCKVSNKGLPSSIEKTISKAKGQPREPQVYTLPPSQEEMTKNQVSLTCLVKGFYPSDIAVEWESNGQPENNYKTTPPVLDSDGSFFLYSKLTVDKSRWQEGNVFSCSVMHEALHNHYTQESLSLSP light: DIVMTQSPLSLPVTPGEPASISCRPSQSPVHSNRNTYLHWYQQKPGQAPRLLIYKVSNRFSGVPDRFSGSGSGTDFTLKISRVEAEDVGVYYCYQGTQVPYTFGQGTKLEIKRTVAAPSVFIFPPSDEQLKSGTASVVCLLNNFYPREAKVQWKVDNALQSGNSQESVTEQDSKDSTYSLSSTLTLSKADYEKHKVYACEVTHQGLSSPVTKSFNRGEC	3.3

The next lines start with the values.

ECM binding ratio (standard = 1)	Binder
1.6	TR01H113-E2702GsKsc/GCH094-E2704sEpsc/L0011-k0 (bispecific antibody, human IgG4 S228P, kappa, N297A) heavy 1: QVQLVESGGGVVQPGGSLRLSCAASGFTFSNAWMHWVRQAPGKGLEWVAQIKDKSQNYATYVAESVKGRFTISRADSKNSIYLQMNSLKTEDTAVYYCRYVHYAAGYGVDIWGQGTTVTVSSASTKGPSVFPLAPCSRSTSESTAALGCLVKDYFPEPVTVSWNSGALTSGVHTFPAVLQSSGLYSLSSVVTVPSSSLGTKTYTCNVDHKPSNTKVDKRVESKYGPPCPPCPAPEFRGGPKVFLFPPKPKDTLMISRTPEVTCVVVDVSQEDPEVQFNWYVDGVEVHNAKTKPREEQFASTYRVVSVLTVLHQDWLNGKEYKCKVSNKGLPSSIEKTISKAKGQPREPQVYTLPPSQKEMTKNQVSLTCLVKGFYPSDIAVEWESNGQPENNYKTTPPVLDSDGSFFLYSKLTVDKSRWQEGNVFSCSVMHEALHNRYTQKSLSLSP heavy 2: QVQLVQSGAEVKKPGASVTVSCKASGYTFTDYEMHWVRQAPGEGLEWMGAIDGETPDTAYSEKFKGRVTLTADKSTSTAYMELSSLTSEDTAVYYCTRFYSYTYWGQGTLVTVSSASTKGPSVFPLAPCSRSTSESTAALGCLVKDYFPEPVTVSWNSGALTSGVHTFPAVLQSSGLYSLSSVVTVPSSSLGTQTYTCNVDHKPSNTKVDKRVESKYGPPCPPCPAPEFRGGPKVFLFPPKPKDTLMISRTPEVTCVVVDVSQEDPEVQFNWYVDGVEVHNAKTKPREEQFASTYRVVSVLTVLHQDWLNGKEYKCKVSNKGLPSSIEKTISKAKGQPREPQVYTLPPSQEEMTKNQVSLTCLVKGFYPSDIAVEWESNGQPENNYKTTPPVLDSDGSFFLYSKLTVDKSRWQEGNVFSCSVMHEALHNHYTQESLSLSP light: DIVMTQSPLSLPVTPGEPASISCRSSQPLVHSNRNTYLHWYQQKPGQAPRLLIYKVSNRFSGVPDRFSGSGSGTDFTLKISRVEAEDVGVYYCGQGTQVPYTFGQGTKLEIKRTVAAPSVFIFPPSDEQLKSGTASVVCLLNNFYPREAKVQWKVDNALQSGNSQESVTEQDSKDSTYSLSSTLTLSKADYEKHKVYACEVTHQGLSSPVTKSFNRGEC
2.5	TR01H113-E2702GsKsc/GCH065-E2704sEpsc/L0011-k0 (bispecific antibody, human IgG4 S228P, kappa, N297A) heavy 1: QVQLVESGGGVVQPGGSLRLSCAASGFTFSNAWMHWVRQAPGKGLEWVAQIKDKSQNYATYVAESVKGRFTISRADSKNSIYLQMNSLKTEDTAVYYCRYVHYAAGYGVDIWGQGTTVTVSSASTKGPSVFPLAPCSRSTSESTAALGCLVKDYFPEPVTVSWNSGALTSGVHTFPAVLQSSGLYSLSSVVTVPSSSLGTKTYTCNVDHKPSNTKVDKRVESKYGPPCPPCPAPEFRGGPKVFLFPPKPKDTLMISRTPEVTCVVVDVSQEDPEVQFNWYVDGVEVHNAKTKPREEQFASTYRVVSVLTVLHQDWLNGKEYKCKVSNKGLPSSIEKTISKAKGQPREPQVYTLPPSQKEMTKNQVSLTCLVKGFYPSDIAVEWESNGQPENNYKTTPPVLDSDGSFFLYSKLTVDKSRWQEGNVFSCSVMHEALHNRYTQKSLSLSP heavy 2: QVQLVQSGAEVKKPGASVTVSCKASGYTFTDYEMHWIRQPPGEGLEWIGAIDGPTPDTAYSEKFKGRVTLTADKSTSTAYMELSSLTSEDTAVYYCTRFYSYTYWGQGTLVTVSSASTKGPSVFPLAPCSRSTSESTAALGCLVKDYFPEPVTVSWNSGALTSGVHTFPAVLQSSGLYSLSSVVTVPSSSLGTQTYTCNVDHKPSNTKVDKRVESKYGPPCPPCPAPEFRGGPKVFLFPPKPKDTLMISRTPEVTCVVVDVSQEDPEVQFNWYVDGVEVHNAKTKPREEQFASTYRVVSVLTVLHQDWLNGKEYKCKVSNKGLPSSIEKTISKAKGQPREPQVYTLPPSQEEMTKNQVSLTCLVKGFYPSDIAVEWESNGQPENNYKTTPPVLDSDGSFFLYSKLTVDKSRWQEGNVFSCSVMHEALHNHYTQESLSLSP light: DIVMTQSPLSLPVTPGEPASISCRSSQPLVHSNRNTYLHWYQQKPGQAPRLLIYKVSNRFSGVPDRFSGSGSGTDFTLKISRVEAEDVGVYYCGQGTQVPYTFGQGTKLEIKRTVAAPSVFIFPPSDEQLKSGTASVVCLLNNFYPREAKVQWKVDNALQSGNSQESVTEQDSKDSTYSLSSTLTLSKADYEKHKVYACEVTHQGLSSPVTKSFNRGEC
